These results are taken from patent publication US20070298997A1, “Compounds useful in treating diabetic microvascular complications and age-related macular degeneration” (priority 2003, published 2007).

Series [1] concerns VEGF binding to RCEC. Kind of series: VEGF binding assay (125I-VEGF). Also noted: species or system bovine. As to conditions: 1 h, 0.5, 5 and 50 μg competitor (VEGF:kallistatin 1:5, 1:50, 1:500). The protocol:
FIG. 8 illustrates inhibition of VEGF binding to RCEC by kallistatin. […] To determine the competition between kallistatin and VEGF in RCEC binding, ^125I-VEGF was added to RCEC together with 0.5, 5 and 50 μg of unlabeled kallistatin to result in VEGF:kallistatin molar ratios of 1:5, 1:50 and 1:500, respectively.
VEGF binding assay: VEGF (PeproTech, Inc., Rocky Hill, N.J.) was labeled with 125I using the Chloromine T ^125I Labeling Kit (ICN Pharmaceuticals, Inc. Costa Mesa, Calif.) following a protocol recommended by the manufacturer. For the binding assay, RCEC were seeded in 12-well plates and cultured until 80% confluency was reached. The culture medium was replaced with serum-free medium. ^125I-VEGF was added to the medium, 2.5×10^5 CPM/well with and without different concentrations of kallistatin or recombinant plasminogen kringle 5 (K5) and incubated with the cells for 1 h. The medium was removed and cells washed three times with PBS. The cells were then lysed by the addition of 0.35 ml 10% SDS. The cell lysates were collected, and the 125I-VEGF bound to RCEC was quantified by a gamma counter.

For series [2], the system named is TGF-β. Description: TGF-β-induced fibronectin secretion in HMC (ELISA). Particulars: 5 ng/ml TGF-β, 3 days. Format: cell-based, human. The protocol: FIG. 12 illustrates that kallistatin blocks TGF-β-induced fibronectin over-production in HMC. HMC were treated with 5 ng/ml TGF-β without or with different concentrations of kallistatin for 3 days. Fibronectin secreted into the medium was measured by ELISA (mean±SD, n=3). TGF-β induced significant over-production of fibronectin.
Kallistatin blocks the function of TGF-β, a major pathogenic factor in DN. TGF-β is a major inflammatory and fibrosis mediator. It plays a major role in the development of DN. To explore the role of kallistatin in DN, the effect of kallistatin in blocking TGF-β activity in kidney cells was determined. HMC were treated with 5 ng/ml TGF-β for 3 days without or with different concentrations of kallistatin.
(In general: In an ELISA, binding on a coated surface is turned into a signal by an enzyme label.)

Series [3] has as its system rat Müller cell line, rMC-1. Kind of series: Quantification of viable cells by MTT assay, Müller cell line. Particulars: 5-160 nM, 72 h, P>0.05. Format: cell-based. The procedure: (§1) FIG. 2 illustrates the specific inhibition of endothelial cell proliferation by recombinant kallistatin. RCEC were treated with recombinant kallistatin at concentrations of 5,10, 20, 40, 80 and 160 nM for 72 h. Viable cells were quantified by MTT assay. […] This effect appeared to be kallistatin concentration-dependent, with an apparent IC50 of 50 nM (FIG. 2) which is similar to that of K5, a known angiogenic inhibitor (Zhang et al., 2001).
(§2) Quantification of viable cells: Cells were plated in 12-well plates in triplicate and cultured in the growth medium until they reached 60-70% of confluency. The culture medium was replaced with a medium containing 1% fetal bovine serum (FBS). Recombinant kallistatin was added to the cover medium to various concentrations and incubated with the cells for 72 h. The viable cells were quantified by the MTT (3-[4,5-dimethylthiazol-2-yl]-2,5-dephenyl tetrazolium bromid, Roche, Mannheim, Germany) assay following a protocol recommended by the manufacturer. The effect of kallistatin on viable cell number was analyzed using Student's t test.

For series [4], the system named is Retinal capillary endothelial cells (RCEC). Description: Quantification of viable cells by MTT assay, RCEC. Format: cell-based, bovine. The procedure:
as §1
FIG. 7 illustrates the effects of B1 and B2 kinin receptor antagonists on RCEC. In order to test whether the anti-angiogenic activity of kallistatin is via reducing kinin production by inhibiting kallikrein activity, RCEC were treated with 5 μM des-Arg^9-[Leu^8]-bradykinin, a specific antagonist of the B1 kinin receptor or Hoe-140, a specific B2 kinin receptor antagonist, in the presence or absence of 40 nM kallistatin for 48 h, and viable cells were quantified by MTT assay.
as §2
Background: Formazan colour is commonly taken as a measure of viable cells.

Series [5] relates to RCEC. Description: [3H] thymidine incorporation assay. Format: cell-based, bovine. As to conditions: 5 to 160 nM. The procedure:
[^3H] thymidine incorporation assay: RCEC were seeded in 24-well plates in 1:1 DMEM +F-12 nutrient mixture plus 10% FBS and cultured in a CO2 incubator to reach 60-70% confluency. The cells were washed 3 times with PBS and the growth medium replaced by a medium containing 1% FBS and different concentrations of kallistatin. After 24 h culture, [^3H] thymidine was added to the medium (2 μCi/well) and incubated with the cells at 37° C. for 12 h. Free [^3H] thymidine was removed by 3 washes with PBS, and a solution of 6% TCA was added to the wells. The TCA solution was removed, and the wells were washed once with PBS. The remaining material was solubilized with 200 μl of 1 M NaOH (Smith et al., 1999). Incorporated [^3H] thymidine was measured with a microplate scintillation counter (Packard Instrument Company, Meriden, Conn.).
(Incorporation of labelled thymidine or its analogues reports DNA synthesis.)

The test system of series [6] is VEGF. Description: VEGF in the conditioned medium of RCEC by ELISA. Format: cell-based, bovine. As to conditions: RCEC under hypoxia, 24 h, 5-80 nM. The protocol:
FIG. 9 illustrates down-regulation of VEGF expression by kallistatin. As increased VEGF levels in the retina and vitreous play a key role in the development of retinal neovascularization, the effect of kallistatin on the expression of VEGF in cultured RCEC was determined. VEGF secreted into the conditioned medium was measured by VEGF ELISA and normalized by total protein concentration in the medium.
Measurement of VEGF in the conditioned medium of RCEC by ELISA: RCEC were seeded in T75 flasks in endothelial cell growth medium and cultured in a CO2 incubator to reach 60-70% confluency. The cells were washed 3 times with PBS and the growth medium replaced by a serum-free medium containing bFGF (GIBCO-BRL, Gaithersburg, Md.). Kallistatin was added to the medium to various concentrations and incubated with the cells for 24 h under normoxia or hypoxia (in a chamber that was perfused with a mixture of 95% N2+5% CO2). The conditioned medium was harvested for VEGF ELISA and the cells were used for Western blot analysis. The conditioned medium was centrifuged and the protein concentration in the supernatant was measured with BioRad protein assay. VEGF concentration was measured using a VEGF ELISA kit (R& D systems, Minneapolis, Minn.) and normalized by total protein concentration in the medium.

B1: kallistatin: Recombinant His-tagged rat kallistatin (serpin, SEQ ID NO:1) expressed in E. coli and affinity-purified (protein, listed as Homo sapiens)
chain: DGILGRDTLPHEDQGKGRQLHSLTLASINTDFTLSLYKKLALRNPDKNVVFSPLSISAALAILSLGAKDSTMEEILEVLKFNLTEITEEEIHHQGFGHLLQRLSQPEDQAEINTGSALFIDKEQPILSEFQEKTRALYQAEAFVADFKQCNEAKKFINDYVSNQTQGKIAELFSELDERTSMVLVNYLLFKGKWKVPFNPNDTFESEFYLDEKRSVKVPMMKIKDLTTPYIRDEELSCSVLELKYTGNASALFILPDQGKMQQVESSLQPETLKKWKDSLRPRIISELRMPKFSISTDYNLEEVLPELGIRKIFSQQADLSRITGTKNLHVSQVVHKAVLDVDETGTEGAAATAVTAALKSLPQTIPPLNFNRPFMLVITDNNGQSVFFMGKVTNPM
modifications: His tag
Usually IC50 stands for the midpoint of a concentration-inhibition curve. Take B1: the “VEGF bound to RCEC” value in series [1] is reported as “decreased in a kallistatin concentration-dependent manner”. The TGF-β-induced fibronectin secretion entry in series [2] is recorded as “blocked the TGF-β-induced fibronectin secretion in a concentration-dependent manner”; in series [2] (listed as Kallistatin) it was “blocked the TGF-β-induced fibronectin production in a concentration-dependent manner”. For the same molecule, the “inhibition of the Müller cell line (viable cells)” value in series [3] is “did not result in any significant inhibition”. In addition, the “viable cells vs control” value in series [4] (5 nM, 72 h, P<0.05) was “significantly fewer viable cells than the control cells”. The “viable cell numbers, % of the control” value in series [4] (40 nM, 48 h, P<0.01) is listed as “approximately 50 % of the control”. Besides, the concentration for half-maximal inhibition (IC50) in series [4] (72 h, read-out: apparent IC50, viable cells) is 50 nM. The “thymidine incorporation (cell proliferation rate)” value in series [5] is “inhibited thymidine incorporation in RCEC in a concentration-dependent manner”. Further, the “VEGF secreted into the conditioned medium” value in series [6] is listed as “reduced VEGF in the medium”.
